From patent publication US20230131727A1 (Janssen / Centocor, published 2023)

Assays:
[1] = biological target: T1, human PSMA (prostate-specific membrane antigen) on cells (human, UniProt Q04609 1-750); test: cell-based or functional assay
[2] = biological target: T1, human PSMA (prostate-specific membrane …); test: cell-based or functional assay; remark: listed apart in the source

T1 sequence (Q04609 whole entry): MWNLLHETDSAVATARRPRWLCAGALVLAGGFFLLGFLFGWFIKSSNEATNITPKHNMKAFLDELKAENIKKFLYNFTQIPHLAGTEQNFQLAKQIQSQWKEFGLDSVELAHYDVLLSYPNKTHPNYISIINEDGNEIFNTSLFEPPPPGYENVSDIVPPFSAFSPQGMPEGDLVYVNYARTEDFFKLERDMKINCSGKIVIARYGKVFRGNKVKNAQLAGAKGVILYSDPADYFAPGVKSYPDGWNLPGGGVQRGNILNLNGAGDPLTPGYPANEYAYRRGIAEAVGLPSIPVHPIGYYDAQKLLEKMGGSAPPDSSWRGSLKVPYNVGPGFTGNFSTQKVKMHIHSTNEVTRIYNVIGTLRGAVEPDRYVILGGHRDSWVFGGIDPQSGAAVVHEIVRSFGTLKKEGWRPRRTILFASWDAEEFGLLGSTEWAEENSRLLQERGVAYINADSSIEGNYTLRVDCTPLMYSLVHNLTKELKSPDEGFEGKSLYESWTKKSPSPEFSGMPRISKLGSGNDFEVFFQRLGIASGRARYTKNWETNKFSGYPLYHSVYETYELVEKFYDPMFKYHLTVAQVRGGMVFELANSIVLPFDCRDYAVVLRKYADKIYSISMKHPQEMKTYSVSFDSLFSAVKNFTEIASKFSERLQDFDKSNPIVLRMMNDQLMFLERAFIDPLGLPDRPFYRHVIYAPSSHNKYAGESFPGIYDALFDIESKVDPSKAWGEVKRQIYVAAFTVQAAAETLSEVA

Binder	MMAF IC25 (nM), 22RV1 cells [1]	C4-2B IC50 [2]	DX8951 IC50 (nM), 22RV1 cells [1]
PSMB1157 conjugated to maleimide-PEG4-vcPAB-MMAF (ADC) (antibody, human IgG1, lambda, V domains shown, reduced cysteines carry maleimide-PEG4-vcPAB-MMAF or N-ethyl maleimide; sites not given) VH: EVQLVESGGGVVQPGRSLRLSCAASVRTFSGYGMHWVRQVPGKGLEWVAVISYDGSNRYYADSVKGRFTISRDNSKNTLYLQMNSLRTEDTAVYYCARDGNWGSLDLYFDLWGRGTLVTVSS VL: QSVLTQPPSVSGAPGQRVTISCTGSSSNIGADYDVHWYQQLPGTAPKLLIYVNNNRPSGVPDRFSGSRSGTSASLAITGLQADDEADYYCQSYDNTLSGVVFGGGTKLTVLG	0.4 nM	0.03 nM	–
PSMB1157 conjugated to MC-GGFG-DX8951 (ADC) (antibody, human IgG1, lambda, DAR 8, V domains shown, reduced cysteines carry MC-GGFG-DX8951; DAR 8.0) VH: EVQLVESGGGVVQPGRSLRLSCAASVRTFSGYGMHWVRQVPGKGLEWVAVISYDGSNRYYADSVKGRFTISRDNSKNTLYLQMNSLRTEDTAVYYCARDGNWGSLDLYFDLWGRGTLVTVSS VL: QSVLTQPPSVSGAPGQRVTISCTGSSSNIGADYDVHWYQQLPGTAPKLLIYVNNNRPSGVPDRFSGSRSGTSASLAITGLQADDEADYYCQSYDNTLSGVVFGGGTKLTVLG	–	–	2.2 nM
PSMB1183 conjugated to maleimide-PEG4-vcPAB-MMAF (ADC) (antibody, human IgG1, lambda, V domains shown, reduced cysteines carry maleimide-PEG4-vcPAB-MMAF or N-ethyl maleimide; sites not given) VH: QVQLQESGPGLVKSSETLSLTCTVSGGSISSYYWNWIRQPAGKGLEWIGRIYSSGNTDYNPSLKSRVTMSVDTSKNQFSLKLISVTAADTAVYYCARGRGANVGLFDYWGQGTLVTVSS VL: QSALTQPPSVSGAPGQRVTISCTGSNSNIGANYDVHWYQHLPGTAPKLLIYGNINRPLGVPDRFSGSRSGTSASLAITGLQAEDEADYYCQSYDFSLSGSVFGVGTKLTVLG	–	0.03 nM	–
PSMB1183 conjugated to MC-GGFG-DX8951 (ADC) (antibody, human IgG1, lambda, DAR 8, V domains shown, reduced cysteines carry MC-GGFG-DX8951; DAR 8.0) VH: QVQLQESGPGLVKSSETLSLTCTVSGGSISSYYWNWIRQPAGKGLEWIGRIYSSGNTDYNPSLKSRVTMSVDTSKNQFSLKLISVTAADTAVYYCARGRGANVGLFDYWGQGTLVTVSS VL: QSALTQPPSVSGAPGQRVTISCTGSNSNIGANYDVHWYQHLPGTAPKLLIYGNINRPLGVPDRFSGSRSGTSASLAITGLQAEDEADYYCQSYDFSLSGSVFGVGTKLTVLG	–	–	0.7 nM
PSMB1156 conjugated to maleimide-PEG4-vcPAB-MMAF (ADC) (antibody, human IgG1, lambda, V domains shown, reduced cysteines carry maleimide-PEG4-vcPAB-MMAF or N-ethyl maleimide; sites not given) VH: EVQLVESGGGVVQPGRSLRLSCAASGFTFTSYGMHWVRQAPGKGLEWVAVISYDGSNKYYADSVKGRFTISRDNSKNTLYLQMNSLRAEDTAVYYCAREHYDSSGYYHGYYGMDVWGQGTTVTVSS VL: not shown	0.9 nM	0.04 nM	–
PSMB1156 conjugated to MC-GGFG-DX8951 (ADC) (antibody, human IgG1, lambda, DAR 8, V domains shown, reduced cysteines carry MC-GGFG-DX8951; DAR 8.0) VH: EVQLVESGGGVVQPGRSLRLSCAASGFTFTSYGMHWVRQAPGKGLEWVAVISYDGSNKYYADSVKGRFTISRDNSKNTLYLQMNSLRAEDTAVYYCAREHYDSSGYYHGYYGMDVWGQGTTVTVSS VL: not shown	–	–	1.4 nM
PSMB1154 conjugated to maleimide-PEG4-vcPAB-MMAF (ADC) (antibody, human IgG1, lambda, V domains shown, reduced cysteines carry maleimide-PEG4-vcPAB-MMAF or N-ethyl maleimide; sites not given) VH: EVQLVESGGGEVQPGRSLRLTCAVSGFTLSRYGMHWVRQAPGKGLEWAALISYDGSNRYYADSVKGRFTISRDNSKNTVFLQMNSLRAEDTAVYYCARERESSGWFEGYFDYWGQGTTVTVSS VL: QLVLTQPPSVSVAPGQTARITCGGNNIGSKSVHWYQQKPGQAPVLVVYDNSDRPSGIPERFSGSNSGNTATLTISRVEVGDEADYYCQVWDSSSDHVVFGGGTKLTVLG	0.1 nM	0.03 nM	–
PSMB1154 conjugated to MC-GGFG-DX8951 (ADC) (antibody, human IgG1, lambda, DAR 8, V domains shown, reduced cysteines carry MC-GGFG-DX8951; DAR 8.0) VH: EVQLVESGGGEVQPGRSLRLTCAVSGFTLSRYGMHWVRQAPGKGLEWAALISYDGSNRYYADSVKGRFTISRDNSKNTVFLQMNSLRAEDTAVYYCARERESSGWFEGYFDYWGQGTTVTVSS VL: QLVLTQPPSVSVAPGQTARITCGGNNIGSKSVHWYQQKPGQAPVLVVYDNSDRPSGIPERFSGSNSGNTATLTISRVEVGDEADYYCQVWDSSSDHVVFGGGTKLTVLG	–	–	0.8 nM
